Source: US9951373B2, “Oplophorus-derived luciferases, novel coelenterazine substrates, and methods of use” (Promega Corporation, priority 2010, dated 2018)

Legend:
[1] = Thermal stability of OgLuc variants at 60° C.; assay type: physicochemical; conditions: 60° C., assay buffer MES pH 6.0
Protocol: Aliquots were removed at different time-points and placed on dry ice to freeze the samples. […] Luminescence was measured on a GLOMAX® luminometer (Promega Corp.).
The thermal stability of the variants at 60° C. was examined as described above, except the assay buffer contained 100 mM MES pH 6.0 instead of HEPES.

[2] = Stability of secreted OgLuc variants in saved media; assay type: physicochemical; conditions: secreted variant in saved media
Protocol: To determine if the secretion signal sequence of OgLuc facilitates its secretion, the OgLuc variants 9B8, V2 and L27V were cloned into pF4Ag containing an N-terminal OgLuc secretion signal sequence. The variants were also cloned into vectors without the secretion signal sequence. CHO or HeLa cells were then plates at 100,000 cells/well in 1 mL F12 media with 10% FBS and 1× sodium pyruvate (CHO cells) or DMEM with 10% FBS and 1× sodium pyruvate (HeLa cells) into 12-well plates and incubated overnight at 37° C., 5% CO2.
After the overnight incubation, the cells were transfected with 1 μg plasmid DNA containing 9B8, V2, or L27V with or without the secretion signal sequence using the TRANSIT®-LT1 transfection reagent (Mirus Bio) and OPTI-MEMO media (Invitrogen). The cells were again incubated overnight at 37° C., 5% CO2.
After the second overnight incubation, the media was removed and saved for analysis. […] To 10 μL of cell lysate or saved media from each sample, 50 μL assay buffer with 40 μM PBI-3939 was added, and luminescence measured as described above.
To determine the stability of the secreted variants, 150 μL aliquots of the saved media from each sample was placed at 37° C. or 50° C. The aliquots were then removed at different time points (0, 1, 2, 3, 5, 6, and 7 […]), frozen on dry ice, and kept at −20° C. until assayed. To assay for stability, the media aliquots were thawed to room temperature, and 10 μL of each aliquot was mixed with assay buffer with PBI-3939 (pH 6.0) as described above. Luminescence was measured as above, and the half-life (t50) determined (Table 34).

[3] = Protein (thermal) stability of OgLuc variants at 50° C.; assay type: physicochemical; conditions: bacterial lysates, native coelenterazine
Protocol: Lysates of E. coli containing 15C1, 9B8, 9F6, 8A3 or IV and E. coli expressing hRL (SEQ ID NO: 30 and 31) were prepared from induced cultures as described previously. Lysate samples were diluted 1:1000 with a buffer containing 10 mM HEPES pH 7.5 with 0.1% gelatin. Diluted lysate (100 μL) samples, in replicate 96-well plates, were incubated at 50° C. At different time points, plates were placed at −70° C. (minus seventy degrees Celsius). Prior to measuring the luminescence as described previously, each plate was thawed at room temperature, i.e., 22° C., for 10 min. Samples (10 μL of each thawed sample) were assayed using native coelenterazine as a substrate. Luminescence was measured immediately after addition of assay buffer for each time point plate. The half-life of the protein, which indicated protein stability, was calculated from the luminescence data for each time point using methods known in the art.

[4] = Luminescence of 9B8 opt+K33N derived variants in E. coli; assay type: biochemical; conditions: bacterial lysates
Protocol: Luminescence generated from the lysates was measured using the novel PBI-3939 and native coelenterazine as substrates. The relative specificity of the variants for PBI-3939 and native coelenterazine was calculated as described previously.
A new OgLuc library was created using 9B8opt+K33N as a starting template. The random library was created using DIVERSIFY® PCR Random Mutagenesis Kit (ClonTech; Catalog #630703). Condition 5 (as listed in the user manual) was used to generate additional variants, and the average mutation rate was calculated to be 2.6 mutations per gene by compiling sequence data from 83 randomly selected clones. This PCR library was cloned into the pF4Ag-based, non-fusion vector background described previously and the sandwich background, i.e., Id-OgLuc-HT7 (described in Example 45). Variants in the pF4Ag-base non-fusion vector background are designated with (NF). Variants in the sandwich vector background are designated with (F). In order to clone the PCR product into both vectors, an amino acid, i.e., a glycine, was appended to the variant sequence in pF4Ag, generating a new position 170 in the OgLuc variant (“170G”). The 170G is present in the sandwich construct, but in this case is considered part of the linker between OgLuc and HT7. For each library, 4,400 E. coli clones were assayed as described previously with the following exceptions. […] The assay buffer contained 100 mM MES pH 6.0 instead of HEPES, and 35 mM thiourea. The assay volumes were as follows: 10 μL cells, 40 μL, lysis buffer, and 50 μL, assay buffer.
E. coli lysates containing the variants were prepared and analyzed as described previously. Luminescence generated from the lysates was measured using the novel PBI-3939 and native coelenterazine as substrates. The luminescence of the variants was normalized to the luminescence generated by 9B8 opt (Table 12). The relative specificity of the variants for PBI-3939 and native coelenterazine was calculated by dividing the luminescence of the variants using PBI-3939 as a substrate with the luminescence of the variants using native coelenterazine as a substrate (Table 12).

[5] = system: NIH3T3 cells; test: Luminescence of OgLuc variants expressed in NIH3T3 cells; assay type: cell-based; conditions: PBI-3939
Protocol: (§1) The PCR library in the pF4Ag-based non-fusion background was screened for additional variants with increased luminescence compared to 9B8 opt+K33N+170G (SEQ ID NOs: 68 and 69). Selected variants were then assayed in HEK293 and NIH3T3 cells. For each cell type, 15,000 cells were plated and grown overnight at 37° C. The next day, the cells were transfected as described in Example 25 with 10 ng pGL4.13 (Promega Corp.) as a transfection control and 100 ng of the OgLuc test DNA. The media was removed, and the cells were lysed with 100 μL of lysis buffer as described in Example 25 except the lysis buffer contained 100 mM MES pH 6.0 instead of HEPES, and luminescence measured using a GLOMAX® Luminometer.
(§2) Based on the above data, further combination variants were designed and generated (see Table 10) in the context of the pF4Ag-based non-fusion vector background without the 170G. The variants were analyzed in E. coli, HEK293 and NIH3T3 cells as described above and compared to 9B8 opt+K33N. The variants were also examined for luminescence with native coelenterazine.
(§3) The brightness of the variants expressed in HEK293 and NIH3T3 cells was measured as described previously. The luminescence of the variants was normalized to the luminescence generated by 9B8 opt (Table 27).

[6] = system: HEK293 cells; test: Luminescence of OgLuc variants expressed in HEK293 cells; assay type: cell-based, human; conditions: PBI-3939
Protocol: as §1, §2, §3

[7] = Enzyme kinetics of OgLuc variants in E. coli lysates; assay type: biochemical; conditions: PBI-3939, E. coli lysates
Protocol: Using methods known in the art, enzyme kinetic assays measuring luminescence were performed with the lysates of E. coli containing IV and the IV variants 15C1, 9B8, 9F6, and 9A3. […] Two fold serial dilutions of PBI-3939 in the assay buffer described previously in Example 26 were assayed with the diluted lysates. […] Variants 9B8 and 9F6 had higher Km values compared to IV while Km values for the other variants were unchanged.
Luminescence was measured on a TECAN® INFINITE® F500 luminometer.
The enzyme kinetics values were determined for the OgLuc variants as described previously, except luminescence was measured using a GLOMAX® luminometer. Three replicates were used for each variant.

[8] = system: HEK293 cells; conditions: mole-to-mole basis, HT7 fusions
[9] = Stability of variants expressed in HEK293 cells; assay type: physicochemical; conditions: 20 μM PBI-3939
Protocol: The variants 9B8 and V2 (9B8+K33N+T39T+K43R+Y68D) were also screened in HEK293 cells to determine their stability. The variants were cloned into pF4Ag and transfected into HEK293 cells (15,000 cells/well) as previously described. After transfection, the cells were lysed in assay reagent (as previously described; no PBI-3939), and luminescence measured using the assay reagent with 20 μM PBI-3939. […] This is consistent with the half-life seen for these variants in E. coli (Table 26).

B1: 9B8: IV variant with Q18L, F68Y, L72Q, M75K (SEQ ID NO: 19) (protein)
chain: MVFTLEDFVGDWRQTAGYNLDQVLEQGGLSSLFQKLGVSVTPIQKIVLSGENGLKIDIHVIIPYEGLSGYQMGQIEKIFKVVYPVDDHHFKVILHYGTLVIDGVTPNMIDYFGRPYEGIAVFDGKKITVTGTLWNGNKIIDERLINPDGSLLFRVTINGVTGWRLCERILA
- 1/2 life hours [1]: 5.1 h
- ½ life 37 C. [2]: 8 days
- ½ life 50 C. [2]: 3 h
- ½ life (hrs) [3]: 5.8 h
- ½ life (min) [3]: 346.6 min
- Fold over coelenterazine ([4]; luminescence with PBI-3939 divided by luminescence with native coelenterazine): 7
- Fold over 9B8 ([4]; luminescence with PBI-3939 normalized to 9B8 opt): 1.0
- luminescence normalized to 9B8 opt, NIH3T3 [5]: 1.0
- luminescence normalized to 9B8 opt, HEK293 [6]: 1.0
- Km [7]: 7.7 µM
- Vmax [7]: 86,000,000 RLU/0.5 sec
- fold brighter than Luc2 [8]: approximately 15 fold
- fold brighter than hRL [8]: > 100 fold
- half-life [9]: 5.2 h
